Results on 18 substances are retold here after patent US9260501B2, “Peptide extended insulins” (priority 2006, dated 2016).

Assay [1] addresses purified recombinant human insulin receptor - (minus) exon 11 (human) (UniProt P06213). Kind of assay: SPA antibody-capture competition assay, displacement of A14 Tyr[125I]-human insulin from recombinant human insulin receptor minus exon 11; affinity relative to human insulin.
The next assay concerns the target human insulin receptor (Homo sapiens, UniProt P06213). Nature of the assay: Insulin receptor binding, SPA (Scintillation Proximity Assay) microtiterplate antibody capture assay. Particulars: binding affinity relative to that of human insulin; purified recombinant human insulin receptor minus exon 11; A14 Tyr[125I]-human insulin tracer. (In general: Scintillation proximity formats need no separation of bound from free tracer.)

Chain of human insulin receptor (P06213 28-746 isoform P06213-2 limits assumed): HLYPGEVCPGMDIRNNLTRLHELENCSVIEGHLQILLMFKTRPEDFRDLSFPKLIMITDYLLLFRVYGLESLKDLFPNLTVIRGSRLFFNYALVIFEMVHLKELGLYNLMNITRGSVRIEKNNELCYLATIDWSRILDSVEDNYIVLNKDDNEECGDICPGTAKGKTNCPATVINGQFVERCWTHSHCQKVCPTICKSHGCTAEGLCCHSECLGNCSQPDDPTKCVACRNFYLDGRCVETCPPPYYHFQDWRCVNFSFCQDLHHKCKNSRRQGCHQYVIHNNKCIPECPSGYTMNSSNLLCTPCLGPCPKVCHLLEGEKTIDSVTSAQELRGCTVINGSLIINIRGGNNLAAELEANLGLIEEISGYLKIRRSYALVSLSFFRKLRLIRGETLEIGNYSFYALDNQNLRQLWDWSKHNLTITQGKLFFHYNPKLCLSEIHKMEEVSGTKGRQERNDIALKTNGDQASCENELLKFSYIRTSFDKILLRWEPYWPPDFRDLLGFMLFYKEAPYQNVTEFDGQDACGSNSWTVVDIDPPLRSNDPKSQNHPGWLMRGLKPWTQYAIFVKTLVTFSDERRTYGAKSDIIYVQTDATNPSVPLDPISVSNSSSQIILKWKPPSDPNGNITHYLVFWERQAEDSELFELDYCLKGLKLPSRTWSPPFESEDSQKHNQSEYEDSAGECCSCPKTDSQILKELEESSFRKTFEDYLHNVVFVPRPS
Chain of human insulin receptor (P06213 763-1382 partner limits assumed): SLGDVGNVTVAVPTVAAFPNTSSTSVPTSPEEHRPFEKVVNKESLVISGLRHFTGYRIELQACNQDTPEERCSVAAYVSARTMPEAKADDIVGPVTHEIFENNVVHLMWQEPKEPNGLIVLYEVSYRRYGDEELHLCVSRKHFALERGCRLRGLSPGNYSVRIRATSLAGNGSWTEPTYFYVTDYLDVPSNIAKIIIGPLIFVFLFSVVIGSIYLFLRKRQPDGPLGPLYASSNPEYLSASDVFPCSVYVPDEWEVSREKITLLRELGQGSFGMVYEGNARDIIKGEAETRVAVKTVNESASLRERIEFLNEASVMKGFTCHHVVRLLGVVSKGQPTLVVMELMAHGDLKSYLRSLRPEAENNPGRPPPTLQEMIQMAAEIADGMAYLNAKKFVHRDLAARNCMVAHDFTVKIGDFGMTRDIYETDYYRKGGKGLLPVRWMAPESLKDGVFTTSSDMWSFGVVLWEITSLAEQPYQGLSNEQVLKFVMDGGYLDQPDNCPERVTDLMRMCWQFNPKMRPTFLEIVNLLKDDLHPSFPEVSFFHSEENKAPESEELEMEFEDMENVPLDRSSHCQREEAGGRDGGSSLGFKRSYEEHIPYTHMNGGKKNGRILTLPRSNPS

Take “A14E, A21Q, A22-A45G, B25H, desB30 Human Insulin (from UniProt P01308) (ligand)”: in assay [1], the Relative insulin receptor binding stood at 12%. On the same count and under the same terms, next, “A14E, A21Q, A22-A45G, B(-6)-(-1)G, B25H, desB30 Human Insulin (from UniProt P01308) (ligand)”: 10%; “A14E, A21Q, A22-A45G, B(-12)-(-1)G, B25H, desB30 Human Insulin (from UniProt P01308) (ligand)”: 11%; “A14E, A21Q, A22-A45G, B(-18)-(-1)G, B25H, desB30 Human Insulin (from UniProt P01308) (ligand)”: 7.2%. On the same count and under the same terms, then “A14E, A21Q, A22-A57G, B25H, desB30 Human Insulin (from UniProt P01308) (ligand)”, with 14%; and “A14E, A21Q, A22-A62G, B25H, desB30 Human Insulin (from UniProt P01308) (ligand)”, with 2%. Regarding “A14E, A21Q, A22-A62G, B25H, desB30 Human Insulin [Example 20]”, on human insulin receptor, the “Relative insulin receptor binding” value was 2%. As to “A14E, A21Q, A22G-A51G, B25H, desB30 Human Insulin (from UniProt P01308) (ligand)”, the Relative insulin receptor binding in assay [1] worked out at 12%.

Take “A21Q, A22-A45G, B(-6)-(-1G), desB30 Human Insulin (from UniProt P01308) (ligand)”: the Relative insulin receptor binding in assay [1] came to 14%.

In the case of “A21Q, A22-A45G, B(-12)-(-1)G, desB30 Human Insulin (from UniProt P01308) (ligand)”, the Relative insulin receptor binding in assay [1] stood at 16%.

Turning to “A21Q, A22-A45G, B(-18)-(-1)G, desB30 Human Insulin (from UniProt P01308) (ligand)”, in assay [1], the Relative insulin receptor binding is 13%.

Consider “A21Q, A22-A45G, desB30 Human Insulin (from UniProt P01308) (ligand)”, for which the Relative insulin receptor binding in assay [1] came out at 14%.

Take “A21Q, A22-A51G, desB30 Human Insulin (from UniProt P01308) (ligand)”: in assay [1], the Relative insulin receptor binding is 17%. Turning to “A21Q, A22-A57G, desB30 Human Insulin (from UniProt P01308) (ligand)”, the Relative insulin receptor binding in assay [1] is 20%. As to “A22-27G desB30 Human Insulin (from UniProt P01308) (ligand)”, in assay [1], the Relative insulin receptor binding was determined as 44%. Consider “A22-33G desB30 Human Insulin (from UniProt P01308) (ligand)”, for which, in assay [1], the Relative insulin receptor binding amounted to 41%. Turning to “A22-39G desB30 Human Insulin (from UniProt P01308) (ligand)”, in assay [1], the Relative insulin receptor binding was 30%. Still for that read-out and setting: then “A22-45G desB30 Human Insulin (from UniProt P01308) (ligand)”, with 25%.
